Measurements taken from paper PMC5935067.

Target: microtubules polymerised from bovine brain tubulin (bovine), Q6B856
Test: TIRF microscopy, single-molecule dwell-time analysis

dwell time at growing microtubule tips, with 10 nM EB1: 1.8 s
dwell time of lattice-binding events, with 10 nM EB1: 0.74 s
mean dwell time on microtubule tips, without EB1: 0.67 s
mean dwell time on the microtubule lattice, without EB1: 0.49 s
tip association rate, with 10 nM EB1: 5.3e+08 M⁻¹ s⁻¹
tip association rate, without EB1: 2.9e+08 M⁻¹ s⁻¹
B1: His-CLASP2γ-eGFP-StrepII (full-length human CLASP2γ with C-terminal eGFP) (natural protein)
chain: MAMGDDKSFDDEESVDGNRPSSAASAFKVPAPKTSGNPANSARKPGSAGGPKVGGASKEGGAGAVDEDDFIKAFTDVPSIQIYSSRELEETLNKIREILSDDKHDWDQRANALKKIRSLLVAGAAQYDCFFQHLRLLDGALKLSAKDLRSQVVREACITVAHLSTVLGNKFDHGAEAIVPTLFNLVPNSAKVMATSGCAAIRFIIRHTHVPRLIPLITSNCTSKSVPVRRRSFEFLDLLLQEWQTHSLERHAAVLVETIKKGIHDADAEARVEARKTYMGLRNHFPGEAETLYNSLEPSYQKSLQTYLKSSGSVASLPQSDRSSSSSQESLNRPFSSKWSTANPSTVAGRVSAGSSKASSLPGSLQRSRSDIDVNAAAGAKAHHAAGQSVRSGRLGAGALNAGSYASLEDTSDKLDGTASEDGRVRAKLSAPLAGMGNAKADSRGRSRTKMVSQSQPGSRSGSPGRVLTTTALSTVSSGVQRVLVNSASAQKRSKIPRSQGCSREASPSRLSVARSSRIPRPSVSQGCSREASRESSRDTSPVRSFQPLASRHHSRSTGALYAPEVYGASGPGYGISQSSRLSSSVSAMRVLNTGSDVEEAVADALKKPARRRYESYGMHSDDDANSDASSACSERSYSSRNGSIPTYMRQTEDVAEVLNRCASSNWSERKEGLLGLQNLLKNQRTLSRVELKRLCEIFTRMFADPHGKRVFSMFLETLVDFIQVHKDDLQDWLFVLLTQLLKKMGADLLGSVQAKVQKALDVTRESFPNDLQFNILMRFTVDQTQTPSLKVKVAILKYIETLAKQMDPGDFINSSETRLAVSRVITWTTEPKSSDVRKAAQSVLISLFELNTPEFTMLLGALPKTFQDGATKLLHNHLRNTGNGTQSSMGSPLTRPTPRSPANWSSPLTSPTNTSQNTLSPSAFDYDTENMNSEDIYSSLRGVTEAIQNFSFRSQEDMNEPLKRDSKKDDGDSMCGGPGMSDPRAGGDATDSSQTALDNKASLLHSMPTHSSPRSRDYNPYNYSDSISPFNKSALKEAMFDDDADQFPDDLSLDHSDLVAELLKELSNHNERVEERKIALYELMKLTQEESFSVWDEHFKTILLLLLETLGDKEPTIRALALKVLREILRHQPARFKNYAELTVMKTLEAHKDPHKEVVRSAEEAASVLATSISPEQCIKVLCPIIQTADYPINLAAIKMQTKVIERVSKETLNLLLPEIMPGLIQGYDNSESSVRKACVFCLVAVHAVIGDELKPHLSQLTGSKMKLLNLYIKRAQTGSGGADPTTDVSGQS
modifications: not checked
